Experimental data taken from publication PMC9400090, “Cyclin-dependent kinase 1 depolymerizes nuclear lamin filaments by disrupting the head-to-tail interaction of the lamin central rod domain” (The Journal of Biological Chemistry, 2022).

T1: WT lamin 1 to 300 fragment (lamin A/C residues 1-300) (human, UniProt P02545 1-300)
T1 construct: lamin A/C, residues 1-300 (head region 1-27 and part of the central rod domain); The abstract says purified proteins were used; also called lamin 1-300; lamin N-terminal 1 to 300 fragment
T1 sequence (looked up): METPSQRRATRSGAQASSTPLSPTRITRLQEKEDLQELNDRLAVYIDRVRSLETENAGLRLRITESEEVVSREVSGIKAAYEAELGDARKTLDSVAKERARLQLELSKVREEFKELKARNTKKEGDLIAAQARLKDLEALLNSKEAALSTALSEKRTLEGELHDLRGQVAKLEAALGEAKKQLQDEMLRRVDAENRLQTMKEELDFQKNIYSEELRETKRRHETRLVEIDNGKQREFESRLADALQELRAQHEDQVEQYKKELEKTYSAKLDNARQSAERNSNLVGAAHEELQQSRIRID

T2: L59R mutant lamin 1 to 300 fragment (human, UniProt P02545 1-300, L59R)
T2 construct: lamin A/C, residues 1-300, with the genetic (laminopathy) mutation L59R; also called L59R-harboring lamin 1 to 300; L59R lamin 1 to 300
T2 sequence (looked up): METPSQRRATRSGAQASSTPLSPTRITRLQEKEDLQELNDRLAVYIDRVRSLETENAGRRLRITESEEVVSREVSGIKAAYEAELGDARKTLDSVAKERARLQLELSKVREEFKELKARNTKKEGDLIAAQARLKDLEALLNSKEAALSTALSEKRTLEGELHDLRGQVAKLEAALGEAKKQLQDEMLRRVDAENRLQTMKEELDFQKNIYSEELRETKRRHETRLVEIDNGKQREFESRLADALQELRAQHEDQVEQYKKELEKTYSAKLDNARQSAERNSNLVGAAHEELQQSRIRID

B1: GST-fused lamin 250 to 400 fragment (human lamin A/C residues 250-400) (domain or fragment, UniProt P02545 250-400, looked up)
chain: AQHEDQVEQYKKELEKTYSAKLDNARQSAERNSNLVGAAHEELQQSRIRIDSLSAQLSQLQKQLAAKEAKLRDLEDSLARERDTSRRLLAEKEREMAEMRARMQQQLDEYQELLDIKLALDMEIHAYRKLLEGEEERLRLSPSPTSQRSRG
notes: human lamin A/C, residues 250-400: most of coil 2 (242-385) and a C-terminal flanking region (386-400); also called GST-lamin coil 250-400; lamin C-terminal 250 to 400 fragment; source: E. coli, purified (glutathione-agarose, HiTrap Q, desalting); not shown: GST, N-terminal, kept

Experiments:
lamin A/C 250-400 = lamin A/C 250-400 (UniProt P02545); assay: GST pull-down, SDS-PAGE; settings: reference: wild type, CDK1 treated
[1] = target: T1, WT lamin 1 to 300 fragment (lamin A/C …); assay: pull-down; GST-fused coil 2C fragment (5 μM) on GSH-agarose resin with lamin N-terminal fragments (20 μM); 20 mM Tris-HCl pH 7.5, 50 mM NaCl, 1 h at room temperature; eluted with 20 mM GSH; SDS-PAGE or Phos-tag SDS-PAGE; settings: both partners purified
[2] = target: T2, L59R mutant lamin 1 to 300 fragment; assay: as above; settings: both partners purified
[3] = target: the molecule itself; assay: cross-linking; disulfide bond between Cys146 of two coiled-coil dimers as read-out of the A11 tetramer; Phos-tag SDS-PAGE with nonreducing loading dye
[4] = target: B1; assay: pull-down; GST-fused coil 2C fragment (5 μM) on GSH-agarose resin with lamin N-terminal fragments (20 μM); 20 mM Tris-HCl pH 7.5, 50 mM NaCl, 1 h at room temperature; eluted with 20 mM GSH; SDS-PAGE or Phos-tag SDS-PAGE; settings: both partners purified

| Molecule | binding result [4] | further results |
| --- | --- | --- |
| lamin A/C 1-125 (from UniProt P02545) S22A, CDK1 treated | – | binding against the reference (lamin A/C 250-400; sites S22): stronger |
| lamin A/C 1-125 (from UniProt P02545) T19A, CDK1 treated | – | binding against the reference (lamin A/C 250-400; sites T19): stronger |
| B1 | – | binding result [1]: binds; binding result [2]: binds |
| A146C mutant lamin 1 to 300 fragment (domain or fragment, human, UniProt P02545 1-300, looked up, lamin A/C, residues 1-300; Cys146 forms a disulfide between two coiled-coil dimers within the A11 tetramer; also called lamin 1 to 300 (A146C)) METPSQRRATRSGAQASSTPLSPTRITRLQEKEDLQELNDRLAVYIDRVRSLETENAGLRLRITESEEVVSREVSGIKAAYEAELGDARKTLDSVAKERARLQLELSKVREEFKELKARNTKKEGDLIAAQARLKDLEALLNSKECALSTALSEKRTLEGELHDLRGQVAKLEAALGEAKKQLQDEMLRRVDAENRLQTMKEELDFQKNIYSEELRETKRRHETRLVEIDNGKQREFESRLADALQELRAQHEDQVEQYKKELEKTYSAKLDNARQSAERNSNLVGAAHEELQQSRIRID | – | binding result [3]: binds |
| WT lamin 1 to 125 fragment (human lamin A/C, residues 1-125) (domain or fragment, UniProt P02545 1-125, looked up) METPSQRRATRSGAQASSTPLSPTRITRLQEKEDLQELNDRLAVYIDRVRSLETENAGLRLRITESEEVVSREVSGIKAAYEAELGDARKTLDSVAKERARLQLELSKVREEFKELKARNTKKEG | binds | – |
| lamin 1 to 125 fragment T19A (domain or fragment, human, UniProt P02545 1-125, looked up) METPSQRRATRSGAQASSAPLSPTRITRLQEKEDLQELNDRLAVYIDRVRSLETENAGLRLRITESEEVVSREVSGIKAAYEAELGDARKTLDSVAKERARLQLELSKVREEFKELKARNTKKEG | binds | – |
| lamin 1 to 125 fragment S22A (domain or fragment, human, UniProt P02545 1-125, looked up) METPSQRRATRSGAQASSTPLAPTRITRLQEKEDLQELNDRLAVYIDRVRSLETENAGLRLRITESEEVVSREVSGIKAAYEAELGDARKTLDSVAKERARLQLELSKVREEFKELKARNTKKEG | binds | – |
| lamin 1 to 125 fragment T19A/S22A (domain or fragment, human, UniProt P02545 1-125, looked up, also called double mutant) METPSQRRATRSGAQASSAPLAPTRITRLQEKEDLQELNDRLAVYIDRVRSLETENAGLRLRITESEEVVSREVSGIKAAYEAELGDARKTLDSVAKERARLQLELSKVREEFKELKARNTKKEG | binds | – |
| lamin 1 to 125 fragment T19D/S22D (domain or fragment, human, UniProt P02545 1-125, looked up, also called phosphorylation-mimicking dual mutant) METPSQRRATRSGAQASSDPLDPTRITRLQEKEDLQELNDRLAVYIDRVRSLETENAGLRLRITESEEVVSREVSGIKAAYEAELGDARKTLDSVAKERARLQLELSKVREEFKELKARNTKKEG | binds | – |
